B1: S. pombe α-tubulin1 (in the microtubule lattice) (natural protein, UniProt P04688 1-455, looked up)
chain: MREVISVHVGQAGVQIGNACWELYCLEHGIGPDGFPTENSEVHKNNSYLNDGFGTFFSETGQGKFVPRSIYVDLEPNVIDQVRTGPYKDLFHPEQMVTGKEDASNNYARGHYTVGKEMIDSVLERIRRMADNCSGLQGFLVFHSFGGGTGSGLGALLLERLNMEYGKKSNLQFSVYPAPQVSTSVVEPYNSVLTTHATLDNSDCTFMVDNEACYDICRRNLDIERPTYENLNRLIAQVVSSITASLRFAGSLNVDLNEFQTNLVPYPRIHFPLVTYSPIVSAAKAFHESNSVQEITNQCFEPYNQMVKCDPRTGRYMATCLLYRGDVIPRDVQAAVTSIKSRRTIQFVDWCPTGFKIGICYEPPQHVPGSGIAKVNRAVCMLSNTTSIAEAWSRLDHKFDLMYSKRAFVHWYVGEGMEEGEFSEAREDLAALERDYEEVGQDSMDNEMYEADEEY
notes: S. pombe alpha-tubulin1, native, untagged; the sample was a wild-type mixture of alpha-tubulin1 and alpha-tubulin2, the model and the residue numbers are those of alpha-tubulin1; Subunit of m2, written alone for the contacts seen in the structure; also called Sp_α-tubulin1; Sp_α-tub; source: purified from S. pombe as tag-free endogenous tubulin (dual isoform), polymerized in vitro

Data set [1] concerns the molecule itself. In words: cryo-EM structure; 20 or 30 uM dual-isoform Sp_tub polymerized with 5 mM GTP and 25 uM Mal3-143 at 32 °C in PEM mixed 1:1 with MES buffer; 13 uM MTs incubated with 60 uM Mal3 before freezing; 13-PF (13_3) MTs, single-particle averaging, 4.6 Å, no kinesin motor domain.
Data set [2] concerns the target B1. The data set is described as above. The settings on record: both partners purified.
Data set [3] addresses T1, dynamic microtubules polymerized from unlabeled single-isoform S. pombe tubulin (S. pombe, UniProt P04688 1-455; P05219 1-448).
T1 construct: S. pombe alpha-tubulin1, untagged; S. pombe beta-tubulin, untagged; Polymer of alpha-beta heterodimers, grown with 1 mM GTP from Alexa-488-labeled GMPCPP-stabilized pig brain MT seeds
In words: TIRF microscopy; dynamic unlabeled MTs grown from antibody-immobilized GMPCPP pig brain MT seeds; GFP-labelled EB protein in solution; PEM100 pH 6.9 plus 1 mM GTP, with additional KCl (55, 75, 85 mM) in some experiments; 4.5 or 14 uM Sp_tub, 25 uM pig brain tubulin. The settings on record: both partners purified.

T1 sequence (P05219 whole entry, canonical isoform, one chain of several): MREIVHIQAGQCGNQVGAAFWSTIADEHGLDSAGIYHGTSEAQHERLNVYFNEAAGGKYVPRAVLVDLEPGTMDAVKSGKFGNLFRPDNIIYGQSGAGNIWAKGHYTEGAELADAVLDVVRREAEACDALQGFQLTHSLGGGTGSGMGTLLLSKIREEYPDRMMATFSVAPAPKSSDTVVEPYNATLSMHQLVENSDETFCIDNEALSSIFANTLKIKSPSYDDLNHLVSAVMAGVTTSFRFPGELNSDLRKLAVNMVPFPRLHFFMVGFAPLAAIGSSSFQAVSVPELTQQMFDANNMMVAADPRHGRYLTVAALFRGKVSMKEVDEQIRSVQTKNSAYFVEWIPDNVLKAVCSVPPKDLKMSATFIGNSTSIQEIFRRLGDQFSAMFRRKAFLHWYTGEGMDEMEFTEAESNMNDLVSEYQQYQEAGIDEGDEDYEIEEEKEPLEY

For the molecule B1, the binding result in data set [1] is “binds”.

B2: monomeric Mal3 (1-143, Mal3-143) (domain or fragment, S. pombe, UniProt Q10113 1-143, looked up)
chain: MSESRQELLAWINQVTSLGLTRIEDCGKGYAMIQIFDSIYQDIPLKKVNFECNNEYQYINNWKVLQQVFLKKGIDKVVDPERLSRCKMQDNLEFVQWAKRFWDQYYPGGDYDALARRGNRGPANTRVMNSSAGATGPSRRRQV
notes: also called Mal3 CH domain
For B2, the binding result in data set [2] is on record as “binds”.

B3: full-length Mal3-GFP (natural protein, S. pombe, UniProt Q10113 1-308, looked up)
chain: MSESRQELLAWINQVTSLGLTRIEDCGKGYAMIQIFDSIYQDIPLKKVNFECNNEYQYINNWKVLQQVFLKKGIDKVVDPERLSRCKMQDNLEFVQWAKRFWDQYYPGGDYDALARRGNRGPANTRVMNSSAGATGPSRRRQVSSGSSTPSMTKSSANNNNVSSTANTAAVLRAKQAQQQITSLETQLYEVNETMFGLERERDFYFNKLREIEILVQTHLTTSPMSMENMLERIQAILYSTEDGFELPPDQPADLTTALTDHDTNNVAEEAQMTDLKDSETQRVPSAPDFVHARLQSLEVDDDENITF
notes: Mal3, the S. pombe EB protein, full length; His tag removed by TEV protease cleavage; also called dimeric Mal3; not shown: e-GFP, C-terminal, kept
Regarding B3, the binding result in data set [3] is “binds”.
